Here are results for six molecules from publication PMC8924275, “A peroxisomal heterodimeric enzyme is involved in benzaldehyde synthesis in plants” (Nature Communications, 2022).

The target of data set [1] is purified recombinant Arabidopsis thaliana benzaldehyde synthase β subunit (AtBSβ) (Arabidopsis thaliana). Nature of the data set: SEC; purified recombinant proteins at ~1 mg/mL on Superdex 200 Increase 10/300 GL in phosphate-buffered saline. (In general: SEC sorts molecules by how far they enter the pores of the column.)
For data set [2], the system named is CC(C)(COP(=O)(O)OP(=O)(O)OC[C@H]1O[C@@H](n2cnc3c(N)ncnc32)[C@H](O)[C@@H]1OP(=O)(O)O)[C@@H](O)C(=O)NCCC(=O)NCCSC(=O)c1ccccc1. Nature of the data set: purified protein. The following applies: 4 mM NADPH, 50 mM Bis-Tris pH 6.5, 28 °C, α:β 1:1.
Description: HPLC-DAD detection of benzaldehyde, Michaelis-Menten fit on PdBS
For data set [3], the target named is purified recombinant Arabidopsis thaliana benzaldehyde synthase α subunit (AtBSα) (Arabidopsis thaliana).
Data set [4] addresses purified recombinant tomato (Solanum lycopersicum) benzaldehyde synthase α subunit (SlBSα) (Solanum lycopersicum (tomato)).
Data set [5] deals with purified recombinant PhBSβ (from pMAL-c5X, MBP tag) (Petunia hybrida). Put plainly: SEC; purified recombinant proteins at ~1 mg/mL on Superdex 200 Increase 10/300 GL in phosphate-buffered saline.
The next data set deals with T1, AtBS (Arabidopsis thaliana, UniProt F4JFB8+Q9SG99).
T1 construct: gene SDRD; CDS of both subunits from flower cDNA in pMAL-c5X (MBP-tagged), E. coli; amylose resin after 1:1 mixing; heterodimer
T1 sequence (F4JFB8 1-280): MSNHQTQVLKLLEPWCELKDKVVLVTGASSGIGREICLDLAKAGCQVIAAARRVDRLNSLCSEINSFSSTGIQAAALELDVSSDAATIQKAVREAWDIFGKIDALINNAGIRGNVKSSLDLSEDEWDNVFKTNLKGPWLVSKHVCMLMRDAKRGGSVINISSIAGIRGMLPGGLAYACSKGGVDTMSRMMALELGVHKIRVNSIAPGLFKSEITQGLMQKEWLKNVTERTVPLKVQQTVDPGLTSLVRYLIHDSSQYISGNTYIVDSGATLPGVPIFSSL
T1 sequence (Q9SG99 1-266): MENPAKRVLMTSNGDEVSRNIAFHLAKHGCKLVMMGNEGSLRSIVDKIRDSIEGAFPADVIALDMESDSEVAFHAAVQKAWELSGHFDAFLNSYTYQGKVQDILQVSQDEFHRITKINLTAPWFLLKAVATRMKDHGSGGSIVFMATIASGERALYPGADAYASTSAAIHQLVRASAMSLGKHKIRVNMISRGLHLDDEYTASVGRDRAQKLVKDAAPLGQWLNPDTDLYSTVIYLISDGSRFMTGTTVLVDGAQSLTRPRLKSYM
Nature of the data set: HPLC-DAD detection of benzaldehyde, Michaelis-Menten fit. The format is biochemical. The following applies: 4 mM NADPH; 50 mM Bis-Tris pH 6.5; 28 °C; α:β 1:1. An excerpt:
HPLC-DAD detection of benzaldehyde, Michaelis-Menten fit on AtBS

Regarding “purified recombinant Arabidopsis thaliana benzaldehyde synthase β subunit (AtBSβ) (natural protein)”, in data set [1], the stoichiometry N – broadly, the number of molecules, sites or subunits per partner or assembly – is 4.
Take PdBS (Prunus dulcis): in data set [2], the Km – broadly, the substrate concentration at which the rate is half of its maximum – was found to be 629.4 ± 67.7 µM; the Vmax – broadly, the rate approached at saturating substrate – amounted to 2.12 µmol/min/mg; the kcat (usually the number of substrate molecules converted per active site and unit of time at saturation) turned out to be 5.26 ± 0.2 s⁻¹; the kcat/Km (as a rule, the turnover number divided by the Michaelis constant) worked out at 8400 ± 1000 M⁻¹ s⁻¹.
Consider “purified recombinant tomato (Solanum lycopersicum) benzaldehyde synthase β subunit (SlBSβ) (natural protein)”, for which, in data set [3], the apparent BS activity of the cross-species hybrid AtBSα-SlBSβ relative to AtBS (fold higher than AtBS) was 4.6.
On to “purified recombinant PhBSβ (from pMAL-c5X, MBP tag) (natural protein)”, for which the apparent BS activity of the cross-species hybrid SlBSα-PhBSβ compared with SlBS (fold lower than SlBS) in data set [4] is 6.5. Further, the stoichiometry N in data set [5] was 4.
Regarding `CC(C)(COP(=O)(O)OP(=O)(O)OC[C@H]1O[C@@H](n2cnc3c(N)ncnc32)[C@H](O)[C@@H]1OP(=O)(O)O)[C@@H](O)C(=O)NCCC(=O)NCCSC(=O)c1ccccc1` [benzoyl-CoA], the Km at AtBS came out at 243 ± 28.2 µM.
“purified recombinant almond (Prunus dulcis) benzaldehyde synthase β subunit (PdBSβ) (natural protein)”: the apparent BS activity of the cross-species hybrid AtBSα-PdBSβ relative to AtBS (fold higher than AtBS) in data set [3] is 7.8. Moreover, in data set [4], the apparent BS activity of the cross-species hybrid SlBSα-PdBSβ compared with SlBS (fold higher than SlBS) is 2.7.
